In the supplement of paper PMC10126150:
± gives the standard deviation of the averaged measurements.

Tested on: ATP
Assay: switch fluorescence ratio, 500 uM ATP over buffer (Cy3 cluster intensity, sum of 5 cycles each) (fold (ratio)); higher = stronger signal-on switching upon ATP binding; sequences stand for … in TCGTCGGCAGCGTCAGATGTGTATAAGAGACAGTTTTTTTTTTTTTTTTTTTTTTTTT…TC
Details: aptamer strand: ATP DNA aptamer (quencher-CACCTGGGGGAGTATTGCGGAGGAAGG + anchor), 100 nM annealed; ATP concentration: 500 uM
Outline: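 Per cluster, summed Cy3 intensity from the target cycles was divided by that from the buffer cycles to give the fluorescence ratio, then averaged per switch-domain sequence. Clusters outside 100-1000 RFU were excluded. The Cy3-labelled switching-strand clusters, on a modified Illumina MiSeq flow-cell, were annealed to 100 nM quencher-labelled ATP aptamer and imaged in selection buffer, then after 15 min with 500 uM ATP at 22 °C, for five cycles with NaOH stripping and re-annealing between them.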
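Also: ATP exposure 15 min at 22 °C before imaging.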

| Sequence | switch fluorescence ratio |
| --- | --- |
| TTATTCGATT | 0.982 ± 0.019 |
| TTATTCGGCA | 1.005 ± 0.0036 |
| TTATTCTTTT | 1 ± 0.026 |
| TTATTGATCT | 1 ± 0.065 |
| TTATTGCGGA | 0.994 ± 0.022 |
| TTATTGCTCG | 0.989 ± 0.021 |
| TTATTGGGCT | 1.01 ± 0.013 |
| TTATTGGGTG | 1.04 ± 0.024 |
| TTATTGTAAG | 0.9675 ± 0.006 |
| TTATTGTGTA | 0.979 ± 0.025 |
| TTATTTAGCG | 1.03 ± 0.029 |
| TTATTTAGTT | 1.01 ± 0.017 |
| TTATTTCCAC | 0.986 ± 0.013 |
| TTATTTCGTG | 0.998 ± 0.03 |
| TTATTTCTTG | 0.994 ± 0.046 |
| TTATTTGATA | 1 ± 0.034 |
| TTATTTGCGC | 1.024 ± 0.0036 |
| TTATTTTATG | 0.994 ± 0.027 |
| TTATTTTTCG | 1.02 ± 0.018 |
| TTATTTTTGG | 0.989 ± 0.027 |
| TTCAAAAAAA | 0.97 ± 0.026 |
| TTCAAAACGT | 1.04 ± 0.017 |
| TTCAAAATTT | 0.982 ± 0.015 |

| Sequence | switch fluorescence ratio |
| --- | --- |
| TTCAAACATC | 1 ± 0.015 |
| TTCAAATTGG | 1 ± 0.043 |
| TTCAAATTTT | 1.01 ± 0.015 |
| TTCAAGGAGG | 0.978 ± 0.016 |
| TTCAAGGGGG | 1 ± 0.018 |
| TTCAAGGTCA | 1.02 ± 0.028 |
| TTCAAGTGGG | 0.9848 ± 0.0028 |
| TTCAATAGAA | 0.998 ± 0.0029 |
| TTCAATGCTC | 2.17 ± 0.82 |
| TTCACAAGGT | 1.004 ± 0.0049 |
| TTCACATACG | 1.51 ± 0.03 |
| TTCACGAAGA | 1 ± 0.0015 |
| TTCACTGGGG | 1.05 ± 0.012 |
| TTCACTTTTG | 1.01 ± 0.028 |
| TTCAGAAACA | 1.04 ± 0.037 |
| TTCAGAGAAA | 0.98 ± 0.034 |
| TTCAGAGGCG | 1.04 ± 0.011 |
| TTCAGCAAT | 5.31 ± 0.8 |
| TTCAGCCCGG | 0.986 ± 0.056 |
| TTCAGCTACA | 1.02 ± 0.029 |
| TTCAGCTGAG | 0.9861 ± 0.0091 |
| TTCAGGAGGG | 0.991 ± 0.042 |
| TTCAGGCCTT | 1.04 ± 0.059 |

| Sequence | switch fluorescence ratio |
| --- | --- |
| TTCAGGCTTT | 1.01 ± 0.011 |
| TTCAGGTACT | 1.06 ± 0.019 |
| TTCAGTCCGG | 1.01 ± 0.026 |
| TTCATATACT | 1.06 ± 0.034 |
| TTCATATCAT | 1 ± 0.03 |
| TTCATCGAGC | 1.019 ± 0.0076 |
| TTCATCGGCA | 1.35 ± 0.47 |
| TTCATCTGCA | 2.19 ± 1.5 |
| TTCATGATTT | 1.034 ± 0.0045 |
| TTCATGGTAT | 0.991 ± 0.031 |
| TTCATTATGG | 1.004 ± 0.0049 |
| TTCATTATTT | 1 ± 0.024 |
| TTCATTGGTT | 0.998 ± 0.038 |
| TTCATTTTGA | 0.967 ± 0.015 |
| TTCCAGGGGA | 1.08 ± 0.11 |
| TTCCAGGGTG | 1.71 ± 0.92 |
| TTCCATGGCA | 1.037 ± 0.0056 |
| TTCCATTTGT | 1.031 ± 0.0019 |
| TTCCCAGCAG | 1.68 ± 0.65 |
| TTCCCCCCAA | 1.76 ± 0.74 |
| TTCCCGGGGG | 1.06 ± 0.067 |
| TTCCCGGGGT | 1.2 ± 0.32 |
| TTCCCGGTGT | 1.75 ± 0.041 |

| Sequence | switch fluorescence ratio |
| --- | --- |
| TTCCCTAATG | 1 ± 0.033 |
| TTCCCTGAGA | 0.977 ± 0.025 |
| TTCCGAAATG | 1.63 ± 0.17 |
| TTCCGAGTTC | 1.15 ± 0.13 |
| TTCCGGCGCT | 3.42 ± 1.1 |
| TTCCGGGAAA | 0.968 ± 0.031 |
| TTCCGGGCTA | 1.47 ± 0.62 |
| TTCCGGTCCG | 1.16 ± 0.18 |
| TTCCGGTTTG | 0.999 ± 0.054 |
| TTCCGTTAGA | 1.06 ± 0.017 |
| TTCCGTTGAA | 1.05 ± 0.044 |
| TTCCTAGGGA | 0.994 ± 0.046 |
| TTCCTCTCGG | 1.17 ± 0.18 |
| TTCCTTCGAT | 1.51 ± 0.062 |
| TTCCTTGCGG | 1.08 ± 0.057 |
| TTCCTTGGAG | 1.01 ± 0.047 |
| TTCCTTTTAA | 1.04 ± 0.055 |
| TTCGAAAAAA | 1.06 ± 0.14 |
| TTCGAAAAAT | 1.05 ± 0.064 |
| TTCGAAACGA | 1.1 ± 0.14 |
| TTCGAAAGGT | 1.1 ± 0.2 |
| TTCGAAATT | 1.02 ± 0.035 |
| TTCGAGAGGG | 0.981 ± 0.028 |

| Sequence | switch fluorescence ratio |
| --- | --- |
| TTCGAGATCT | 1.16 ± 0.11 |
| TTCGAGCATT | 1.39 ± 0.17 |
| TTCGAGGTTT | 0.982 ± 0.059 |
| TTCGATCTGA | 0.955 ± 0.012 |
| TTCGATTTGC | 1.01 ± 0.022 |
| TTCGCAGGAT | 1.1 ± 0.027 |
| TTCGCCGGCC | 1.26 ± 0.34 |
| TTCGCGGCAC | 2.44 ± 1.3 |
| TTCGCGGGCT | 0.996 ± 0.028 |
| TTCGCTGCCT | 1.03 ± 0.019 |
| TTCGCTGTAT | 1.01 ± 0.011 |
| TTCGGACCAA | 1.46 ± 0.096 |
| TTCGGAGCTG | 1.07 ± 0.14 |
| TTCGGAGTAC | 1.38 ± 0.14 |
| TTCGGAGTCT | 0.985 ± 0.094 |
| TTCGGATATT | 1.13 ± 0.23 |
| TTCGGCGCGG | 1.21 ± 0.32 |
| TTCGGCTCGA | 1.05 ± 0.034 |
| TTCGGCTGGG | 0.98 ± 0.034 |
| TTCGGGAAAA | 0.982 ± 0.016 |
| TTCGGGAGAG | 0.996 ± 0.071 |
| TTCGGGGTAG | 0.963 ± 0.048 |
| TTCGGGGTTA | 1.01 ± 0.018 |

| Sequence | switch fluorescence ratio |
| --- | --- |
| TTCGGGGTTG | 0.96 ± 0.015 |
| TTCGGGTCCT | 1.02 ± 0.031 |
| TTCGGGTGTG | 0.999 ± 0.025 |
| TTCGGTAGGG | 0.926 ± 0.053 |
| TTCGGTTATG | 1.01 ± 0.033 |
| TTCGGTTGGG | 0.986 ± 0.029 |
| TTCGTAGACT | 0.991 ± 0.017 |
| TTCGTGATAG | 1.308 ± 0.0028 |
| TTCGTGGGCT | 1.02 ± 0.045 |
| TTCGTGGGGG | 0.991 ± 0.015 |
| TTCGTGGGGT | 1.03 ± 0.061 |
| TTCGTGTGCC | 0.94 ± 0.011 |
| TTCGTTATTA | 1.34 ± 0.42 |
| TTCGTTGGCT | 1.16 ± 0.23 |
| TTCGTTTGAA | 1 ± 0.027 |
| TTCTAAAATT | 0.992 ± 0.032 |
| TTCTAAAGTA | 0.994 ± 0.014 |
| TTCTAAGGGG | 1.93 ± 1.3 |
| TTCTAATGAG | 0.998 ± 0.019 |
| TTCTACCTGA | 1.064 ± 0.0086 |
| TTCTACTGAT | 1.32 ± 0.39 |
| TTCTAGGCGC | 0.9972 ± 0.0073 |
| TTCTAGGCGG | 1.03 ± 0.029 |

| Sequence | switch fluorescence ratio |
| --- | --- |
| TTCTAGGGAA | 0.977 ± 0.023 |
| TTCTAGGTAG | 0.991 ± 0.05 |
| TTCTAGTTGA | 0.991 ± 0.022 |
| TTCTATTGTT | 0.999 ± 0.017 |
| TTCTCACGTC | 1.01 ± 0.082 |
| TTCTCACTTG | 1.02 ± 0.03 |
| TTCTCGCTGG | 1 ± 0.041 |
| TTCTGAACGT | 1 ± 0.015 |
| TTCTGATCAG | 1.01 ± 0.011 |
| TTCTGATGGT | 0.99 ± 0.021 |
| TTCTGATTGC | 0.984 ± 0.064 |
| TTCTGCAGGT | 0.995 ± 0.011 |
| TTCTGCCCC | 1.01 ± 0.033 |
| TTCTGGAACT | 1.03 ± 0.015 |
| TTCTGGCACA | 1.02 ± 0.029 |
| TTCTGGCGCG | 0.984 ± 0.015 |
| TTCTGGGGAG | 1.03 ± 0.051 |
| TTCTGGGGGA | 0.992 ± 0.039 |
| TTCTGGGGTA | 0.988 ± 0.033 |
